T1: KACTUS-CD19-Fc (Recombinant biotinylated Human CD19 Protein, KACTUS CD2-HE121) (human, UniProt P15391 20-291, biotinylated (site not stated))
T1 construct: Bought unrelated antigen; not shown: Fc
T1 sequence (looked up): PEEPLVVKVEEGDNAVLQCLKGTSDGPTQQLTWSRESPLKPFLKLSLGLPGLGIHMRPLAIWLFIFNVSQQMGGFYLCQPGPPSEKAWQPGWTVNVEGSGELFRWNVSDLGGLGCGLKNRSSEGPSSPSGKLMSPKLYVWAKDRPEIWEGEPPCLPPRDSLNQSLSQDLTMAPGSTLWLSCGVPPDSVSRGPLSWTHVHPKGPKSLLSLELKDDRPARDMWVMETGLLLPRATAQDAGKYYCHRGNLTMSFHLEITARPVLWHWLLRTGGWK

T2: ACRO-CD70-his (Biotinylated Human CD27 Ligand ,His,Avitag; ACRObiosystem CDL-H82Q9) (human, UniProt P32970 39-193, limits assumed, biotinylated (Avitag))
T2 construct: Bought unrelated antigen; not shown: His tag and Avitag
T2 sequence (looked up): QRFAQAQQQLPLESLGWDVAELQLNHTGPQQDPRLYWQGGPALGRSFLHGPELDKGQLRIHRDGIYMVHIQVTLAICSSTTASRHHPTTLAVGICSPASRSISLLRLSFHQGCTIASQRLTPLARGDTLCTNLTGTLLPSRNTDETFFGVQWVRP

T3: BAFF-R on the surface of BAFF-R-positive cells (K562-BAFF-R, NALM6, RS4, MEC1, JEKO1) (human, UniProt Q96RJ3 1-184)
T3 sequence: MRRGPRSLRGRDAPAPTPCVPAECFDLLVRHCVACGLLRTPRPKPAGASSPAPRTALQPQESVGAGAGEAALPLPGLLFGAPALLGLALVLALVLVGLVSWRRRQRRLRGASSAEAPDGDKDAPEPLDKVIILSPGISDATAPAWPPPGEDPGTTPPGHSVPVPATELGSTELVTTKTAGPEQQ

T4: His-tagged human BAFF-R antigen (BAR-H52H3, Acro) (human, UniProt Q96RJ3 7-71, limits assumed)
T4 construct: Bought protein used in BLI; not shown: His tag
T4 sequence: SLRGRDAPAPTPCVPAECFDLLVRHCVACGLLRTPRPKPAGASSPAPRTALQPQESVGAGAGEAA

B1: Clone 1 (monoclonal phage antibody) (scFv, V domains shown)
VH: EVQLVESGAEVKKPGASVKVSCKASGYTFTSYGISWVRQAPGQGLEWMGWISAYNGNTNYAQKLQGRVTMTTDTSTSTAYMELRSLRSDDTAVYYCARNTYYYDSSGYPNDAFDIWGQGTTVTVSS
VL: DIQMTQSPSSLSASVGDRVTITCRASQKISSYLNWYQQKPGKAPKLLIYAASSLQSGVPSRFSGSGSGADFTLTISSLQPEDFATYYCQQSYSPPTTFGGGTKVDIKR
notes: also called 01
B2: Clone 5 (monoclonal phage antibody) (VHH)
VHH: EVQLVESGGGVVQPGRSLRLTCAASGFTFSTSGMYWIRQAPGKGLEWVSYISSSSSTIYYADSVKGRFTISRDNSKNTLYLQMNSLRAEDTAVYYCVTQSCGAGKCYPGVWGQGTTVTVSS
notes: also called 05; 05VH
B3: 0205-1, VH-Fab-Fc 1+1 α-BAFF-R VH×α-CD3 Fab bispecific antibody (bispecific antibody, human IgG4 S228P, lambda, F234A L235A)
heavy: EVQLVESGGGLVQPKGSLKLSCAASGFTFNTYAMNWVRQAPGKGLEWVARIRSKYNNYATYYADSVKDRFTISRDDSQSILYLQMNNLKTEDTAMYYCVRHGNFGNSYVSWFAYWGQGTLVTVSSASTKGPSVFPLAPCSRSTSESTAALGCLVKDYFPEPVTVSWNSGALTSGVHTFPAVLQSSGLYSLSSVVTVPSSSLGTKTYTCNVDHKPSNTKVDKRVESKYGPPCPPCPAPEAAGGPSVFLFPPKPKDTLMISRTPEVTCVVVDVSQEDPEVQFNWYVDGVEVHNAKTKPREEQFNSTYRVVSVLTVLHQDWLNGKEYKCKVSNKGLPSSIEKTISKAKGQPREPQVYTLPPCQEEMTKNQVSLWCLVKGFYPSDIAVEWESNGQPENNYKTTPPVLDSDGSFFLYSRLTVDKSRWQEGNVFSCSVMHEALHNHYTQKSLSLSLGK
light: QAVVTQESALTTSPGETVTLTCRSSTGAVTTSNYANWVQEKPDHLFTGLIGGTNKRAPGVPARFSGSLIGDKAALTITGAQTEDEAIYFCALWYSNLWVFGGGTKLTVLGQPKAAPSVTLFPPSSEELQANKATLVCLISDFYPGAVTVAWKADSSPVKAGVETTTPSKQSNNKYAASSYLSLTPEQWKSHKSYSCQVTHEGSTVEKTVAPTECS
chain: EVQLVESGGGVVQPGRSLRLTCAASGFTFSTSGMYWIRQAPGKGLEWVSYISSSSSTIYYADSVKGRFTISRDNSKNTLYLQMNSLRAEDTAVYYCVTQSCGAGKCYPGVWGQGTTVTVSSESKYGPPCPPCPAPEAAGGPSVFLFPPKPKDTLMISRTPEVTCVVVDVSQEDPEVQFNWYVDGVEVHNAKTKPREEQFNSTYRVVSVLTVLHQDWLNGKEYKCKVSNKGLPSSIEKTISKAKGQPREPQVCTLPPSQEEMTKNQVSLSCAVKGFYPSDIAVEWESNGQPENNYKTTPPVLDSDGSFFLVSRLTVDKSRWQEGNVFSCSVMHEALHNHYTQKSLSLSLGK
notes: IgG4 Fc with S228P/F234A/L235A, knobs on the CD3 side, holes on the BAFF-R side
B4: 0205-2, VH2-Fab-Fc 2+1 α-BAFF-R VH×α-CD3 Fab bispecific antibody (bispecific antibody)
heavy 1: EVQLVESGGGVVQPGRSLRLTCAASGFTFSTSGMYWIRQAPGKGLEWVSYISSSSSTIYYADSVKGRFTISRDNSKNTLYLQMNSLRAEDTAVYYCVTQSCGAGKCYPGVWGQGTTVTVSSGGGGSGGGGSEVQLVESGGGLVQPKGSLKLSCAASGFTFNTYAMNWVRQAPGKGLEWVARIRSKYNNYATYYADSVKDRFTISRDDSQSILYLQMNNLKTEDTAMYYCVRHGNFGNSYVSWFAYWGQGTLVTVSSASTKGPSVFPLAPCSRSTSESTAALGCLVKDYFPEPVTVSWNSGALTSGVHTFPAVLQSSGLYSLSSVVTVPSSSLGTKTYTCNVDHKPSNTKVDKRVESKYGPPCPPCPAPEAAGGPSVFLFPPKPKDTLMISRTPEVTCVVVDVSQEDPEVQFNWYVDGVEVHNAKTKPREEQFNSTYRVVSVLTVLHQDWLNGKEYKCKVSNKGLPSSIEKTISKAKGQPREPQVYTLPPCQEEMTKNQVSLWCLVKGFYPSDIAVEWESNGQPENNYKTTPPVLDSDGSFFLYSRLTVDKSRWQEGNVFSCSVMHEALHNHYTQKSLSLSLGK
light: B3 light
heavy 2: B3 chain
notes: To be checked
B5: 0205-3, VH2-Fab2-Fc 2+2 α-BAFF-R VH×α-CD3 Fab bispecific antibody (bispecific antibody)
heavy: not shown
light: B3 light
notes: To be checked

What was measured:
[1] = biological target: T1, KACTUS-CD19-Fc (Recombinant …); assay: phage ELISA
[2] = biological target: T2, ACRO-CD70-his (Biotinylated Human CD27 …); assay: phage ELISA
[3] = biological target: T5, Streptavidin (Pierce, 21125) (UniProt P22629 37-163, limits assumed); assay: phage ELISA
T5 construct: Control antigen of the ELISA; also called SA; control protein SA

[4] = biological target: T3, BAFF-R on the surface of …; assay: cell-based or functional assay
[5] = biological target: T3, BAFF-R on the surface of …; assay: cell-based or functional assay; remark: listed apart in the source
[6] = biological target: T3, BAFF-R on the surface of …; assay: cell-based or functional assay; remark: listed apart in the source
[7] = biological target: T3, BAFF-R on the surface of …; assay: cell-based or functional assay; remark: listed apart in the source
[8] = biological target: T4, His-tagged human BAFF-R antigen …; assay: BLI (ForteBio Octet), His-tagged antigen on HIS1K sensor, antibody in solution
[9] = biological target: T3, BAFF-R on the surface of …; assay: cell-based or functional assay; remark: listed apart in the source
[10] = biological target: T6, His-tagged human CD3E&D (CDD-H52W1, Acro) (human, UniProt P07766 23-126; P04234 22-105); assay: BLI (ForteBio Octet), His-tagged antigen on HIS1K sensor, antibody in solution
T6 construct: Bought His-tagged heterodimer; also called CD3E&D heterodimer complex

[11] = biological target: T7, His-tagged human CD3E&G (CDG-H52W6, Acro) (human, UniProt P07766 23-126; P09693 23-111); assay: as above
T7 construct: Bought His-tagged heterodimer; also called CD3E&G heterodimer complex

[12] = biological target: T3, BAFF-R on the surface of …; assay: cell-based or functional assay; remark: listed apart in the source

T7 sequence (P07766 23-126, chain 1 of 2): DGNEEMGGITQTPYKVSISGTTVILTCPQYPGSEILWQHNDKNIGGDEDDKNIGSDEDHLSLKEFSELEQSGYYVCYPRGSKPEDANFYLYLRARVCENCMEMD
T7 sequence (P09693 23-111, chain 2 of 2): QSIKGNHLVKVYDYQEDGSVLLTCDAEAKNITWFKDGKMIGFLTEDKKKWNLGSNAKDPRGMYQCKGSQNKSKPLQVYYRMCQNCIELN
T6 sequence (P07766 23-126, chain 1 of 2): as the sequence (P07766 23-126, chain 1 of 2) above
T6 sequence (P04234 22-105, chain 2 of 2): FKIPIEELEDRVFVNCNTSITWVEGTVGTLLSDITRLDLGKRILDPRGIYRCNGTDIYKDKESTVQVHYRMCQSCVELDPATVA
T5 sequence (P22629 37-163 limits assumed): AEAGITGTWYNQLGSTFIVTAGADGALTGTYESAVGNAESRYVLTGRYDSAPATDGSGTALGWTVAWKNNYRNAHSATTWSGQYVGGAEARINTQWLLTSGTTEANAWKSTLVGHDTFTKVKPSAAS

Binder	TDCC reporter gene cell activation by K562-BAFF-R, EC50 [4] [nM]	TDCC reporter gene cell activation by K562-BAFF-R, top [4]	TDCC reporter gene cell activation by Nalm6, EC50 [5] [nM]	TDCC reporter gene cell activation by Nalm6, top [5]	killing of Jeko-1 cells by PBMC (Donor 605C), 24hr, top (%) [6] [%]	killing of Jeko-1 cells by PBMC (Donor 605C), 48hr, top (%) [6] [%]	TDCC reporter gene cell activation by Jeko-1, EC50 [7] [nM]	TDCC reporter gene cell activation by Jeko-1, top [7]	Kd [8] [nM]	koff [8] [s⁻¹]	kon [8] [M⁻¹ s⁻¹]	TDCC reporter gene cell activation by Mec-1, EC50 [9] [nM]	TDCC reporter gene cell activation by Mec-1, top [9]	Kd [10] [nM]	koff [10] [s⁻¹]	kon [10] [M⁻¹ s⁻¹]	Kd [11] [nM]	koff [11] [s⁻¹]	kon [11] [M⁻¹ s⁻¹]	killing of Jeko-1 cells by PBMC (Donor 301C), 24hr, top (%) [12] [%]	other results
B1																					binding result [1]: no binding; binding result [2]: no binding; binding result [3]: no binding
B2																					binding result [1]: no binding; binding result [2]: no binding; binding result [3]: no binding
B3	0.059	9430	3.2	381	-12.6	-12.8	11.7	864	1.78	0.00245	1.38e+06	7.31	793	10.7	0.00811	759000	6.68	0.0278	4.16e+06	-22.3	killing of Jeko-1 cells by PBMC (Donor 301C), 48hr, top (%) [12]: -12.2%
B4	0.054	12300	0.068	2430	39	101	0.23	1650	1.12	0.000976	875000	0.5	2930	10.3	0.00314	306000	11.1	0.00291	262000	57.8	killing of Jeko-1 cells by PBMC (Donor 605C), 24hr, EC50(pM) [6]: 13.1 pM; killing of Jeko-1 cells by PBMC (Donor 605C), 48hr, EC50(pM) [6]: 3.58 pM; killing of Jeko-1 cells by PBMC (Donor 301C), 24hr, EC50(pM) [12]: 52.8 pM; killing of Jeko-1 cells by PBMC (Donor 301C), 48hr, EC50(pM) [12]: 9.74 pM; killing of Jeko-1 cells by PBMC (Donor 301C), 48hr, top (%) [12]: 99.9%
B5	0.041	10900	0.021	1870	6.34	102	0.046	1230	1.27	0.00136	1.07e+06	0.047	1490	10.6	0.0032	302000	9.03	0.00251	277000	28.5	killing of Jeko-1 cells by PBMC (Donor 605C), 24hr, EC50(pM) [6]: 2.48 pM; killing of Jeko-1 cells by PBMC (Donor 605C), 48hr, EC50(pM) [6]: 2.81 pM; killing of Jeko-1 cells by PBMC (Donor 301C), 24hr, EC50(pM) [12]: 18 pM; killing of Jeko-1 cells by PBMC (Donor 301C), 48hr, EC50(pM) [12]: 8.78 pM; killing of Jeko-1 cells by PBMC (Donor 301C), 48hr, top (%) [12]: 102%

From patent EP4786496A1 (Nanjing Iaso Biotechnology Co., Ltd., dated 2026)
